Reference: patent US7060449

T1: rat GALR2 (rat)
T1 chain: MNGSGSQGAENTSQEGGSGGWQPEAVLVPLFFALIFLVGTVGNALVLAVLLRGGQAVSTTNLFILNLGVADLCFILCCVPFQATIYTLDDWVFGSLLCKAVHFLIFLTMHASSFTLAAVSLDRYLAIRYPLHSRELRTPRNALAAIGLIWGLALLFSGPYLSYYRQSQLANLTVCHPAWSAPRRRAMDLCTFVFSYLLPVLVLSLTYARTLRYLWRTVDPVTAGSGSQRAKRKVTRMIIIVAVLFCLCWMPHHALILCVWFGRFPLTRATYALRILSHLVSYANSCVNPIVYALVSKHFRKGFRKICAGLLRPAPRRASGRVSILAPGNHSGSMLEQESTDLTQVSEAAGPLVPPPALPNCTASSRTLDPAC


Biological target: T1, rat GALR2 (rat)
Experiment: radioligand
Settings: modification not given

| Binder | Kd [nM] |
| --- | --- |
| GWTLNSAGYLLGPHAIDNHRSFHDKYGLA [[125I]porcine galanin, P07480] | 0.2 |

Biological target: T1, rat GALR2 (rat)
Experiment: competition
Settings: modification not given

| Binder | Ki [nM] |
| --- | --- |
| GFTLNSAGYLLGPHAI [Phe2-galanin 1-16, P07480] | > 1000 |
| GWTLASAGYLLGPHAI [[Ala5]galanin(1-16), P07480] | > 620 |
| GWTLNSAGY [porcine galanin 1-9, P07480] | > 1000 |
| GWTLNSAGYLLGPHAIDNHRSFHDKYGLA [porcine galanin(1-29), P07480] | 0.447 |
| DNHRSFHDKYGLA [porcine galanin 17-29, P07480] | > 1000 |
| GATLNSAGYLLGPHAI [porcine Ala2-galanin 1-16, P07480] | > 1000 |
| GWTLNSAGALLGPHAI [[Ala9]galanin(1-16), P07480] | > 1000 |
| GWTLNSAGYLLGPHAIDNHRSFHDKYGLA [[D-Trp2]porcine galanin(1-29), P07480] | 6.46 |
| GFTLNSAGYLLGPHAIDNHRSFHDKYGLA [[Phe2]porcine galanin(1-29), P07480] | > 1000 |
